Measured values taken from patent US10941182 (Amgen, dated 2021).
Starred links: 1 amine or outer side, 2 acyl side, 3 side chain; linkers in the order of their positions; H or OH if unused. Non-standard residues stand in square brackets, D forms with d. *: point of attachment. dBip = N[C@H](Cc1ccc(-c2ccccc2)cc1)C(=O)O; Oic = O=C(O)[C@@H]1C[C@@H]2CCCC[C@@H]2N1; Phe(4-Cl) = N[C@@H](Cc1ccc(Cl)cc1)C(=O)O; Phe(4-I) = N[C@@H](Cc1ccc(I)cc1)C(=O)O; γGlu = O=C(O)[C@H](CCC(=O)[*:2])N[*:1]; NMeR = CN[C@@H](CCCNC(=N)N)C(=O)O; Tridecanoyl = CCCCCCCCCCCCC(=O)*; hArg = N=C(N)NCCCC[C@H](N)C(=O)O; Cha = N[C@@H](CC1CCCCC1)C(=O)O; NMeL = CN[C@@H](CC(C)C)C(=O)O; Nle = CCCC[C@H](N)C(=O)O; AEEA = NCCOCCOCC(=O)O

T1: human APJ receptor (human, UniProt P35414 1-380)
T1 sequence (looked up): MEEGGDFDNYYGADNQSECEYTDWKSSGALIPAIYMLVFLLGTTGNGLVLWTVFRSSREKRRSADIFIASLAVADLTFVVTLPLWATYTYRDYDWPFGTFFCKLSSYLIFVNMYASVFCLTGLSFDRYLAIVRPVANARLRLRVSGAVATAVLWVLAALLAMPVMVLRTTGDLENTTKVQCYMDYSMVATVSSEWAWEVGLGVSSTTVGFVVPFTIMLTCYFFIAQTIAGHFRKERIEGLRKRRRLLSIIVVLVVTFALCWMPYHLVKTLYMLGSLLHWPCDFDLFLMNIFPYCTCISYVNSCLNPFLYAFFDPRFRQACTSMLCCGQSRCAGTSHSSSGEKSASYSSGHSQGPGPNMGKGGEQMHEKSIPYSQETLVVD

T2: rat APJ receptor (rat, UniProt Q9JHG3 1-377)
T2 sequence (looked up): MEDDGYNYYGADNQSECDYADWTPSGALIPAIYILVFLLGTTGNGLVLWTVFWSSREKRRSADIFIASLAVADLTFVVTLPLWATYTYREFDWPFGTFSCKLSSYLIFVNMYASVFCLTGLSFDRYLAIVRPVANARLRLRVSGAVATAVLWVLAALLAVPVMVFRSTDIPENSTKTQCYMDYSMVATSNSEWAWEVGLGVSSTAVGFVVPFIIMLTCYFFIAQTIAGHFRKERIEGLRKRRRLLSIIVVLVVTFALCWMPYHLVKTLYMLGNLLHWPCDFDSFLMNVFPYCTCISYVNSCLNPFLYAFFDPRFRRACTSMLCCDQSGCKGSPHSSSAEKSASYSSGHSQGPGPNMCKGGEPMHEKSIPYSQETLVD


Tests used:
[1] = biological target: T1, human APJ receptor; assay: cell-based or functional assay
[2] = biological target: T2, rat APJ receptor; assay: cell-based or functional assay

Row | EC50 Human APJ Receptor [1] [nM] | EC50 Rat APJ Receptor [2] [nM] | Binder
1 | 14.8 | 10.4 | Tridecanoyl-[γGlu][AEEA][AEEA][hArg][dR]Q[hArg]PK[NMeL]SH[Nle]G[Oic][Phe(4-I)]P[dBip]-OH (SMILES CCCCCCCCCCCCC(=O)N[C@@H](CCC(=O)NCCOCCOCC(=O)NCCOCCOCC(=O)N[C@@H](CCCCNC(=N)N)C(=O)N[C@H](CCCNC(=N)N)C(=O)N[C@@H](CCC(N)=O)C(=O)N[C@@H](CCCCNC(=N)N)C(=O)N1CCC[C@H]1C(=O)N[C@@H](CCCCN)C(=O)N(C)[C@@H](CC(C)C)C(=O)N[C@@H](CO)C(=O)N[C@@H](Cc1c[nH]cn1)C(=O)N[C@@H](CCCC)C(=O)NCC(=O)N1[C@H](C(=O)N[C@@H](Cc2ccc(I)cc2)C(=O)N2CCC[C@H]2C(=O)N[C@H](Cc2ccc(-c3ccccc3)cc2)C(=O)O)C[C@@H]2CCCC[C@@H]21)C(=O)O) [SEQ ID NO: 313]
2 | 0.226 | 0.363 | Tridecanoyl-[γGlu][AEEA][AEEA][hArg]Q[hArg]P[NMeR][Cha]SHKG[Oic][Nle]P[Phe(4-Cl)]-OH (SMILES CCCCCCCCCCCCC(=O)N[C@@H](CCC(=O)NCCOCCOCC(=O)NCCOCCOCC(=O)N[C@@H](CCCCNC(=N)N)C(=O)N[C@@H](CCC(N)=O)C(=O)N[C@@H](CCCCNC(=N)N)C(=O)N1CCC[C@H]1C(=O)N(C)[C@@H](CCCNC(=N)N)C(=O)N[C@@H](CC1CCCCC1)C(=O)N[C@@H](CO)C(=O)N[C@@H](Cc1c[nH]cn1)C(=O)N[C@@H](CCCCN)C(=O)NCC(=O)N1[C@H](C(=O)N[C@@H](CCCC)C(=O)N2CCC[C@H]2C(=O)N[C@@H](Cc2ccc(Cl)cc2)C(=O)O)C[C@@H]2CCCC[C@@H]21)C(=O)O) [SEQ ID NO: 310]
3 | 37.5 | 36.1 | Tridecanoyl-[γGlu][AEEA][AEEA][hArg][dR]Q[hArg]P[Nle][NMeL]AAKG[Oic][Phe(4-I)]P[dBip]-OH (SMILES CCCCCCCCCCCCC(=O)N[C@@H](CCC(=O)NCCOCCOCC(=O)NCCOCCOCC(=O)N[C@@H](CCCCNC(=N)N)C(=O)N[C@H](CCCNC(=N)N)C(=O)N[C@@H](CCC(N)=O)C(=O)N[C@@H](CCCCNC(=N)N)C(=O)N1CCC[C@H]1C(=O)N[C@@H](CCCC)C(=O)N(C)[C@@H](CC(C)C)C(=O)N[C@@H](C)C(=O)N[C@@H](C)C(=O)N[C@@H](CCCCN)C(=O)NCC(=O)N1[C@H](C(=O)N[C@@H](Cc2ccc(I)cc2)C(=O)N2CCC[C@H]2C(=O)N[C@H](Cc2ccc(-c3ccccc3)cc2)C(=O)O)C[C@@H]2CCCC[C@@H]21)C(=O)O) [SEQ ID NO: 329]
4 | 24.7 | 18.1 | Tridecanoyl-[γGlu][AEEA][AEEA][hArg][dR]Q[hArg]PK[NMeL]AA[Nle]G[Oic][Phe(4-I)]P[dBip]-OH (SMILES CCCCCCCCCCCCC(=O)N[C@@H](CCC(=O)NCCOCCOCC(=O)NCCOCCOCC(=O)N[C@@H](CCCCNC(=N)N)C(=O)N[C@H](CCCNC(=N)N)C(=O)N[C@@H](CCC(N)=O)C(=O)N[C@@H](CCCCNC(=N)N)C(=O)N1CCC[C@H]1C(=O)N[C@@H](CCCCN)C(=O)N(C)[C@@H](CC(C)C)C(=O)N[C@@H](C)C(=O)N[C@@H](C)C(=O)N[C@@H](CCCC)C(=O)NCC(=O)N1[C@H](C(=O)N[C@@H](Cc2ccc(I)cc2)C(=O)N2CCC[C@H]2C(=O)N[C@H](Cc2ccc(-c3ccccc3)cc2)C(=O)O)C[C@@H]2CCCC[C@@H]21)C(=O)O) [SEQ ID NO: 331]
5 | 3.96 | 4.76 | Tridecanoyl-[γGlu][AEEA][AEEA][hArg][dR]Q[hArg]PK[NMeL]SA[Nle]G[Oic][Phe(4-I)]P[dBip]-OH (SMILES CCCCCCCCCCCCC(=O)N[C@@H](CCC(=O)NCCOCCOCC(=O)NCCOCCOCC(=O)N[C@@H](CCCCNC(=N)N)C(=O)N[C@H](CCCNC(=N)N)C(=O)N[C@@H](CCC(N)=O)C(=O)N[C@@H](CCCCNC(=N)N)C(=O)N1CCC[C@H]1C(=O)N[C@@H](CCCCN)C(=O)N(C)[C@@H](CC(C)C)C(=O)N[C@@H](CO)C(=O)N[C@@H](C)C(=O)N[C@@H](CCCC)C(=O)NCC(=O)N1[C@H](C(=O)N[C@@H](Cc2ccc(I)cc2)C(=O)N2CCC[C@H]2C(=O)N[C@H](Cc2ccc(-c3ccccc3)cc2)C(=O)O)C[C@@H]2CCCC[C@@H]21)C(=O)O) [SEQ ID NO: 325]
6 | 34.7 | 37.4 | Tridecanoyl-[γGlu][AEEA][AEEA][hArg][dR]Q[hArg]P[Nle][NMeL]SHKG[Oic][Phe(4-I)]P[dBip]-OH (SMILES CCCCCCCCCCCCC(=O)N[C@@H](CCC(=O)NCCOCCOCC(=O)NCCOCCOCC(=O)N[C@@H](CCCCNC(=N)N)C(=O)N[C@H](CCCNC(=N)N)C(=O)N[C@@H](CCC(N)=O)C(=O)N[C@@H](CCCCNC(=N)N)C(=O)N1CCC[C@H]1C(=O)N[C@@H](CCCC)C(=O)N(C)[C@@H](CC(C)C)C(=O)N[C@@H](CO)C(=O)N[C@@H](Cc1c[nH]cn1)C(=O)N[C@@H](CCCCN)C(=O)NCC(=O)N1[C@H](C(=O)N[C@@H](Cc2ccc(I)cc2)C(=O)N2CCC[C@H]2C(=O)N[C@H](Cc2ccc(-c3ccccc3)cc2)C(=O)O)C[C@@H]2CCCC[C@@H]21)C(=O)O) [SEQ ID NO: 311]
7 | 56.8 | 63.9 | Tridecanoyl-[γGlu][AEEA][AEEA][hArg][dR]Q[hArg]P[Nle][NMeL]AHKG[Oic][Phe(4-I)]P[dBip]-OH (SMILES CCCCCCCCCCCCC(=O)N[C@@H](CCC(=O)NCCOCCOCC(=O)NCCOCCOCC(=O)N[C@@H](CCCCNC(=N)N)C(=O)N[C@H](CCCNC(=N)N)C(=O)N[C@@H](CCC(N)=O)C(=O)N[C@@H](CCCCNC(=N)N)C(=O)N1CCC[C@H]1C(=O)N[C@@H](CCCC)C(=O)N(C)[C@@H](CC(C)C)C(=O)N[C@@H](C)C(=O)N[C@@H](Cc1c[nH]cn1)C(=O)N[C@@H](CCCCN)C(=O)NCC(=O)N1[C@H](C(=O)N[C@@H](Cc2ccc(I)cc2)C(=O)N2CCC[C@H]2C(=O)N[C@H](Cc2ccc(-c3ccccc3)cc2)C(=O)O)C[C@@H]2CCCC[C@@H]21)C(=O)O) [SEQ ID NO: 317]
8 | 39.7 | 56.1 | Tridecanoyl-[γGlu][AEEA][AEEA][hArg][dR]Q[hArg]P[dR][NMeL]AA[Nle]G[Oic][Phe(4-I)]P[dBip]-OH (SMILES CCCCCCCCCCCCC(=O)N[C@@H](CCC(=O)NCCOCCOCC(=O)NCCOCCOCC(=O)N[C@@H](CCCCNC(=N)N)C(=O)N[C@H](CCCNC(=N)N)C(=O)N[C@@H](CCC(N)=O)C(=O)N[C@@H](CCCCNC(=N)N)C(=O)N1CCC[C@H]1C(=O)N[C@H](CCCNC(=N)N)C(=O)N(C)[C@@H](CC(C)C)C(=O)N[C@@H](C)C(=O)N[C@@H](C)C(=O)N[C@@H](CCCC)C(=O)NCC(=O)N1[C@H](C(=O)N[C@@H](Cc2ccc(I)cc2)C(=O)N2CCC[C@H]2C(=O)N[C@H](Cc2ccc(-c3ccccc3)cc2)C(=O)O)C[C@@H]2CCCC[C@@H]21)C(=O)O) [SEQ ID NO: 330]
9 | 2.51 | 5.29 | Tridecanoyl-[γGlu][AEEA][AEEA][hArg][dR]Q[hArg]P[Nle][NMeL]SAKG[Oic][Phe(4-I)]P[dBip]-OH (SMILES CCCCCCCCCCCCC(=O)N[C@@H](CCC(=O)NCCOCCOCC(=O)NCCOCCOCC(=O)N[C@@H](CCCCNC(=N)N)C(=O)N[C@H](CCCNC(=N)N)C(=O)N[C@@H](CCC(N)=O)C(=O)N[C@@H](CCCCNC(=N)N)C(=O)N1CCC[C@H]1C(=O)N[C@@H](CCCC)C(=O)N(C)[C@@H](CC(C)C)C(=O)N[C@@H](CO)C(=O)N[C@@H](C)C(=O)N[C@@H](CCCCN)C(=O)NCC(=O)N1[C@H](C(=O)N[C@@H](Cc2ccc(I)cc2)C(=O)N2CCC[C@H]2C(=O)N[C@H](Cc2ccc(-c3ccccc3)cc2)C(=O)O)C[C@@H]2CCCC[C@@H]21)C(=O)O) [SEQ ID NO: 323]
10 | 73.2 | 63.1 | Tridecanoyl-[γGlu][AEEA][AEEA][hArg][dR]Q[hArg]PK[NMeL]AH[Nle]G[Oic][Phe(4-I)]P[dBip]-OH (SMILES CCCCCCCCCCCCC(=O)N[C@@H](CCC(=O)NCCOCCOCC(=O)NCCOCCOCC(=O)N[C@@H](CCCCNC(=N)N)C(=O)N[C@H](CCCNC(=N)N)C(=O)N[C@@H](CCC(N)=O)C(=O)N[C@@H](CCCCNC(=N)N)C(=O)N1CCC[C@H]1C(=O)N[C@@H](CCCCN)C(=O)N(C)[C@@H](CC(C)C)C(=O)N[C@@H](C)C(=O)N[C@@H](Cc1c[nH]cn1)C(=O)N[C@@H](CCCC)C(=O)NCC(=O)N1[C@H](C(=O)N[C@@H](Cc2ccc(I)cc2)C(=O)N2CCC[C@H]2C(=O)N[C@H](Cc2ccc(-c3ccccc3)cc2)C(=O)O)C[C@@H]2CCCC[C@@H]21)C(=O)O) [SEQ ID NO: 319]
